{
  "source": "paper PMC9496542",
  "about": "“The Ni(II)-Binding Activity of the Intrinsically Disordered Region of Human NDRG1, a Protein Involved in Cancer Development” (Biomolecules, 2022)",
  "proteins": {"B1": {"name": "endogenous hNDRG1 in A549 cells (natural protein)", "chain": "not shown", "notes": "human NDRG1, endogenous protein of the lung carcinoma-derived A549 cells, detected by Western blot with anti-NDRG1; source: endogenous, A549 lysate"}, "B2": {"name": "full-length human NDRG1 (N-terminal Strep-tagged, recombinant) (natural protein)", "chain": "not shown", "notes": "No cleavage of the tag is described for the full-length protein; also called hNDRG1; N-myc downstream-regulated gene 1 protein; source: E. coli BL21-CodonPlus (DE3) RiL, purified (StrepTrap HP, Superdex 200)"}, "B3": {"name": "endogenous hNDRG1 in HeLa cells (natural protein)", "chain": "not shown", "notes": "human NDRG1, endogenous protein of HeLa cells, detected with an antibody against the N-terminal region of NDRG1; source: endogenous, HeLa lysate"}},
  "key": {"[1]": {"target": "the molecule itself", "experiment": "SDS-PAGE under nondenaturing conditions with Western blot; A549 cells untreated or treated with 1 mM NiSO4 for two days; total lysates and nuclear extracts; Western blot with anti-NDRG1"}, "[2]": {"target": "the molecule itself", "experiment": "SEC-MALS; SEC-MALS-QELS; hNDRG1 300 uL at 140 uM on Superdex 200 10/300 GL; 20 mM HEPES pH 7.5, 150 mM NaCl, 1 mM TCEP; room temperature, 0.5 mL/min; without or with Ni(II); SEC also run with 10 mM DTT; monomer, dimer and tetramer in equilibrium"}, "[3]": {"target": "the molecule itself", "experiment": "SDS-PAGE under nondenaturing conditions with Western blot; HeLa cells untreated or treated with 1 mM NiSO4 for 24 h; lysed under nondenaturing conditions; lysates in native sample buffer; blot with an antibody against the N-terminal region of NDRG1"}},
  "note": "Where “and” joins values, the source holds several entries; their conditions need not be identical. Equal entries are not always repeated.",
  "data": [
    {"protein": "B1", "values": [
      {"measurement": "stoichiometry N", "setting": "[1]", "result": 4}
    ]},
    {"protein": "B2", "values": [
      {"measurement": "stoichiometry N", "setting": "[2]", "result": "4 and 2"}
    ]},
    {"protein": "B3", "values": [
      {"measurement": "stoichiometry N", "setting": "[3]", "result": "2 and 4"}
    ]}
  ]
}
